Source: US8530168B2, “Fusion protein comprising a Caspase domain and a nuclear hormone receptor binding domain and methods and uses thereof” (Helmholtz Zentrum Munich Deutsches Forschungszentrum fuer …, priority 2007, dated 2013)

B1: Cre-ER(T2): fusion of Cre recombinase to ER(T2) ligand binding domain, negative control, SEQ ID NO: 5 (protein)
chain: MSNLLTVHQNLPALPVDATSDEVRKNLMDMFRDRQAFSEHTWKMLLSVCRSWAAWCKLNNRKWFPAEPEDVRDYLLYLQARGLAVKTIQQHLGQLNMLHRRSGLPRPSDSNAVSLVMRRIRKENVDAGERAKQALAFERTDFDQVRSLMENSDRCQDIRNLAFLGIAYNTLLRIAEIARIRVKDISRTDGGRMLIHIGRTKTLVSTAGVEKALSLGVTKLVERWISVSGVADDPNNYLFCRVRKNGVAAPSATSQLSTRALEGIFEATHRLIYGAKDDSGQRYLAWSGHSARVGAARDMARAGVSIPEIMQAGGWTNVNIVMNYIRNLDSETGAMVRLLEDGDLEPSAGDMRAANLWPSPLMIKRSKKNSLALSLTADQMVSALLDAEPPILYSEYDPTRPFSEASMMGLLTNLADRELVHMINWAKRVPGFVDLTLHDQVHLLECAWLEILMIGLVWRSMEHPVKLLFAPNLLLDRNQGKCVEGMVEIFDMLLATSSRFRMMNLQGEEFVCLKSIILLNSGVYTFLSSTLKSLEEKDHIHRVLDKITDTLIHLMAKAGLTLQQQHQRLAQLLLILSHIRHMSNKGMEHLYSMKCKNVVPLYDLLLEAADAHRLHAPTSRGGASVEETDQSHLATAGSTSSHSLQKYYITGEAEGFPATA
modifications: fusion protein Cre-ER(T2)
B2: myrCasp8-ER(T2): murine Caspase-8 domain with N-terminal myristoylation motif fused to ER(T2) ligand binding domain, SEQ ID NO: 23 (protein)
chain: MGSSKSKPKDPSQRSESRTSDKVYQMKNKPRGYCLIINNHDFSKAREDITQLRKMKDRKGTDCDKEALSKTFKELHFEIVSYDDCTANEIHEILEGYQSADHKNKDCFICCILSHGDKGVVYGTDGKEASIYDLTSYFTGSKCPSLSGKPKIFFIQACQGSNFQKGVPDEAGFEQQNHTLEVDSSSHKNYIPDEADFLLGMATVKNCVSYRDPVNGTWYIQSLCQSLRERCPQGDDILSILTGVNYDVSNKDDRRNKGKQMPQPTFTLRKKLFFPPLEPSAGDMRAANLWPSPLMIKRSKKNSLALSLTADQMVSALLDAEPPILYSEYDPTRPFSEASMMGLLTNLADRELVHMINWAKRVPGFVDLTLHDQVHLLECAWLEILMIGLVWRSMEHPVKLLFAPNLLLDRNQGKCVEGMVEIFDMLLATSSRFRMMNLQGEEFVCLKSIILLNSGVYTFLSSTLKSLEEKDHIHRVLDKITDTLIHLMAKAGLTLQQQHQRLAQLLLILSHIRHMSNKGMEHLYSMKCKNVVPLYDLLLEAADAHRLHAPTSRGGASVEETDQSHLATAGSTSSHSLQKYYITGEAEGFPATA
modifications: N-terminal myristoylation motif; fusion protein myrCasp8-ER(T2)
B3: Casp8-ER(T2): fusion of murine Caspase-8 domain to the ER(T2) ligand binding domain, SEQ ID NO: 20 (protein)
chain: MSESRTSDKVYQMKNKPRGYCLIINNHDFSKAREDITQLRKMKDRKGTDCDKEALSKTFKELHFEIVSYDDCTANEIHEILEGYQSADHKNKDCFICCILSHGDKGVVYGTDGKEASIYDLTSYFTGSKCPSLSGKPKIFFIQACQGSNFQKGVPDEAGFEQQNHTLEVDSSSHKNYIPDEADFLLGMATVKNCVSYRDPVNGTWYIQSLCQSLRERCPQGDDILSILTGVNYDVSNKDDRRNKGKQMPQPTFTLRKKLFFPPLEPSAGDMRAANLWPSPLMIKRSKKNSLALSLTADQMVSALLDAEPPILYSEYDPTRPFSEASMMGLLTNLADRELVHMINWAKRVPGFVDLTLHDQVHLLECAWLEILMIGLVWRSMEHPVKLLFAPNLLLDRNQGKCVEGMVEIFDMLLATSSRFRMMNLQGEEFVCLKSIILLNSGVYTFLSSTLKSLEEKDHIHRVLDKITDTLIHLMAKAGLTLQQQHQRLAQLLLILSHIRHMSNKGMEHLYSMKCKNVVPLYDLLLEAADAHRLHAPTSRGGASVEETDQSHLATAGSTSSHSLQKYYITGEAEGFPATA
modifications: fusion protein Casp8-ER(T2)

Tests used:
Type in all cases: cell-based, mouse
MEF5/N9 cells [1] = assay: Transient cotransfection of ER(T2) fusion expression vectors with β-galactosidase reporter; β-galactosidase activity in lysates; conditions: 10^−8 M 4-OH-tamoxifen, 48 h; for relative β-galactosidase activity in presence of 4-OH-tamoxifen compared to the negative control: relative to Cre-ER(T2) without 4-OH-tamoxifen
Method: The transformed mouse embryonic fibroblast cell line MEF5/N9 (Schwenk et al., Nucleic Acids Research, 26(6) 1427-1432 (1998)) was obtained from Michel Aguet (University of Zurich, Switzerland). The cells were grown in DMEM medium (Life Technologies) supplemented with 2 mM […] and 10% fetal calf serum at 37° C., 5% CO2 in humid atmosphere and passaged upon trypsinization. One day before transient transfection 4·10^4 cells were plated into a 24-well plate (Falcon). For the transient transfection of MEF5/N9 cells with plasmids, each well received into 500 μl of medium a total amount of 150 ng or 200 ng supercoiled plasmid DNA complexed before with the FuGene6 transfection reagent (Roche Diagnostics GmbH, Mannheim, Germany) according to the manufacturer's protocol. Each 150 ng or 200 ng DNA preparation (FIG. 2 sample 1 to 11) contained 100 ng of the β-Galactosidase expression vector pCMV-β-gal-pA (pCMVβ, Clontech, FIG. 1G, SEQ ID NO: 56), and 100 ng of the fusion ER(T2) expression vectors to be tested (FIG. 2 sample 3-7, 10-11) and the control plasmids (FIG. 2 sample 1-3), except for the samples with the plasmids pCAG-Casp9full-ER(T2)-bpA (FIG. 2 sample 8) and pCAG-Casp9trunc-ER(T2)-bpA (FIG. 2 sample 9), respectively, that received 50 ng of the test vector. For each sample to be tested four individual wells were transfected. Five hours after the addition of the DNA preparations each well received additional 500 μl of growth medium. The following day, the medium of two wells of each sample was replaced by fresh medium. The other two wells received medium containing 10^−8 M 4-hydroxy-tamoxifen (Sigma). 48 hours after induction with 4-OH-tamoxifen, the cells of each well were lysed with 200 μl lysate reagent supplemented with protease inhibitors (Roche Diagnostics GmbH). The lysates were centrifuged and 50 μl were used to determine the β-galactosidase activities using the β-galactosidase reporter gene assay (Roche Diagnostics GmbH) according to the manufacturer's protocol in a microplate luminometer (Berthold Detection Systems GmbH). The mean value and standard deviation of the samples was calculated from the β-galactosidase RLU values obtained from the two transfected wells of each sample. The relative β-galactosidase activity was obtained by comparison to the negative control (pCAG-Cre-ER(T2)-bpA) without 4-OH-tamoxifen.
To investigate the cell death effect of the different ER(T2) fusion constructs quantitatively, we performed transient cotransfections of the ER(T2) fusion protein expression vectors together with a fixed amount of a reporter plasmid coding for β-galactosidase in MEF5/N9 fibroblast cells. Transfected cells were treated 12 hours after transfection with 4-OH-tamoxifen at a concentration of 10^−8 M. Following 48 hours of 4-OH-tamoxifen induction, the cells from the various samples were lysed and the activity of β-galactosidase in the lysates was determined by a chemiluminescence assay and expressed in “Relative Light Units” (RLU) (FIG. 2). As positive controls for 4-OH-tamoxifen-inducible cell death, we prepared samples transfected with the constructs pCAG-HAFas-ER(T2) or pCAG-MFas-ER(T2) together with the reporter plasmid and treatment with 4-OH-tamoxifen. As negative control for this assay served samples which received the reporter plasmid together with the expression vector pCAG-Cre-ER(T2) and that were treated with 4-OH-tamoxifen.
To determine the relative activity of the tested ER(T2) fusion constructs inducing apoptosis in the presence of 4-OH-tamoxifen, the RLU values of β-galactosidase activity were divided individually for each sample by the RLU value obtained from the sample which received the plasmid pCAG-Cre-ER(T2) but was not treated with 4-OH-tamoxifen (defined as negative control). The relative activity of the tested Caspase- or bax-ER(T2) fusion proteins was then compared to the negative control for 4-OH-tamoxifen-dependent cell death defined as an activity of 1.

MEF5/N9 cells [2] = assay: MTT cytotoxicity assay of stably transfected MEF5/N9 clones; conditions: 10^−8 M 4-OH-tamoxifen, 48 h
Method: (§1) To generate stably transfected MEF5/N9 cells, 2·10^6 cells were coelectroporated with 32 μg ER(T2) fusion plasmid DNA linearised with ScaI and 8 μg pPgk-hygro-pA plasmid DNA linearised with XhoI and plated into two 96-well plates. The cells were grown in DMEM medium (Invitrogen) supplemented with 2 mM Glutamine and 10% fetal calf serum at 37° C., 5% CO2 in humid atmosphere, and passaged upon trypsinization. Two days after transfection the medium was supplemented with 250 U/ml of hygromycin (Calbiochem) for the selection of stable integrants. Upon the growth of resistant colonies these were individually expanded in the presence of hygromycin.
To quantify 4-OH-tamoxifen-inducible cell death, we applied the colorimetric MTT assay (Mossman, J. Immunol. Methods, 65, 55 (1983)) allowing the quantification of cell survival. Cells (4·10^3) were plated on 96-well plates. The assay was carried out in three replicas for each sample treated with and without 4-OH-tamoxifen. After 12 h, medium was replaced either with fresh medium or with medium supplemented with 10^−8 M 4-OH-tamoxifen. Following 48 h of 4-OH-tamoxifen treatment, sterile filtered MTT reagent in PBS (Sigma) was added at the concentration of 0.5 mg/ml. Incubation occurred for 4 hours at 37° C. With ongoing reaction time, dark violet MTT formazan crystals appeared on the bottom of the wells containing living cells. The crystals were dissolved in 150 μl 0.04 N HCl/isopropanol to give a homogeneous blue solution suitable for absorbance measurement at a wavelength of 570 nm on the Synergy™ HT Multi-Detection Microplate Reader (BioTek).

MEF5/N9 cells [3] = assay: Visible phenotypic changes / viability of stably transfected MEF5/N9 clones on 4-OH-tamoxifen treatment; conditions: 10^−8 M 4-OH-tamoxifen, 24 h
Method: as §1
To examine 4-OH-tamoxifen-dependent cell death, 1·10^5 MEF5/N9 cells expressing ER(T2) fusion proteins were plated into each well of a six-well plate. The following day, for each sample the medium in two of four individual wells were replaced with medium supplemented with 10^−8 M 4-hydroxy-tamoxifen. 24 hours after induction with 4-OH-tamoxifen, cells were photographed through a Leica DMI6000B fluorescence microscope with phase contrast either at 10-fold or 20-fold magnification.
Since the responsiveness of the clones, transfected with the same construct, to 4-OH-tamoxifen differed only slightly from each other, only the results obtained from one clone for each construct are shown in the figure.

MEF5/N9 cells [4] = assay: Transient cotransfection of ER(T2) fusion expression vectors with β-galactosidase reporter; β-galactosidase activity in lysates; conditions: no 4-OH-tamoxifen; transient transfection 50 or 100 ng vector; relative to Cre-ER(T2) without 4-OH-tamoxifen

Molecule | 4-OH-tamoxifen-dependent activity / toxicity in transient transfection (in words) (MEF5/N9 cells [1]) | cell viability in the presence of 4-OH-tamoxifen (MTT) (MEF5/N9 cells [2]) | 4-OH-tamoxifen-dependent cell death, phenotype of stable clones (MEF5/N9 cells [3]) | 4-OH-tamoxifen-dependent cell death, phenotype of stable clones (MEF5/N9 cells [3]; listed as CreER) | basal toxicity: relative β-galactosidase activity compared to the negative control in absence of 4-OH-tamoxifen (MEF5/N9 cells [4]) | relative β-galactosidase activity in presence of 4-OH-tamoxifen compared to the negative control (MEF5/N9 cells [1]) | 4-OH-tamoxifen-dependent cell death, phenotype of stable clones (MEF5/N9 cells [3]; listed as myrCasp8ER) | 4-OH-tamoxifen-dependent cell death, phenotype of stable clones (MEF5/N9 cells [3]; listed as Casp8ER)
B1 | Neither the expression of the negative control Cre-ER(T2) alone nor the combined treatment with 4-OH-tamoxifen at the concentration of 10^−8 M displayed toxic side effects | not affected by treatment with 4-OH-tamoxifen | did not respond to 4-OH-tamoxifen | not affected by the treatment with 4-OH-tamoxifen | – | – | – | –
B2 | – | 9% | died in the presence of 4-OH-tamoxifen within 24 h | – | 6% | 0.1% | substantial cell death | –
B3 | – | 31% | died in the presence of 4-OH-tamoxifen within 24 h | – | 17% | 3% | – | substantial cell death
